Assays:
[1] = target: T1, HEPN domain of SACSIN (tag removed) (UniProt Q9NZJ4 4441-4579); assay: BLI; 75 nM to 10 uM protein; BLI: 20 mM potassium phosphate pH 7.4, 150 mM KCl, 0.05% Tween-20, 25 C; pull-down: PBS, 2 mM MgCl2, 0.2% NP-40, 0.05% BSA, RNase inhibitor, room temperature; conditions: protein: recombinant; tags: GST removed by thrombin; chain copies: 2; label: biotin; 1 strand
T1 sequence: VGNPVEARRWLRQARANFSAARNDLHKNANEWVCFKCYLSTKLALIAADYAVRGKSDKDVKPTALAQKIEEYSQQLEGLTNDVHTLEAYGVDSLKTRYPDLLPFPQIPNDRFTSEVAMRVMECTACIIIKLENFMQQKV

[2] = target: T1, HEPN domain of SACSIN (tag removed); assay: BLI; BLI: 20 mM potassium phosphate pH 7.4, 150 mM KCl, 0.05% Tween-20, 25 C; pull-down: PBS, 2 mM MgCl2, 0.2% NP-40, 0.05% BSA, RNase inhibitor, room temperature; conditions: protein: recombinant; tags: GST removed by thrombin; chain copies: 2; label: 5' biotin; 1 strand; two putative G-quadruplex-forming stretches

Binder: AACCAACUUUCGAUCUCUUGUAGAUCUGUUCU (ssRNA) [non-GC-rich RNA 32 nt]
- binding result [1]: no binding

Binder: CGGGGGCGGCGGCGGCGGCGGCGGCAGCGGGG (ssRNA) [GC-rich RNA 32 nt (predicted HEPN interacting RNA)]
- Kd [2]: 2.6 ± 0.3 µM
